Reference: paper PMC9381590, “DDX39B drives colorectal cancer progression by promoting the stability and nuclear translocation of PKM2” (Signal Transduction and Targeted Therapy, 2022)

B1: purified STUB1 (natural protein, UniProt Q9UNE7 1-303, looked up)
chain: MKGKEEKEGGARLGAGGGSPEKSPSAQELKEQGNRLFVGRKYPEAAACYGRAITRNPLVAVYYTNRALCYLKMQQHEQALADCRRALELDGQSVKAHFFLGQCQLEMESYDEAIANLQRAYSLAKEQRLNFGDDIPSALRIAKKKRWNSIEERRIHQESELHSYLSRLIAAERERELEECQRNHEGDEDDSHVRAQQACIEAKHDKYMADMDELFSQVDEKRKKRDIPDYLCGKISFELMREPCITPSGITYDRKDIEEHLQRVGHFDPVTRSPLTQEQLIPNLAMKEVIDAFISENGWVEDY
notes: STIP1 homology and U-box-containing protein 1 (STUB1); the methods tell only of GST- and His-fused proteins from E. coli BL21 (DE3); source: recombinant, purified
B2: purified recombinant PKM2 1-219 aa protein (domain or fragment)
chain: not shown
notes: also called PKM2^1–218,219aa; source: recombinant, purified

What was measured:
[1] = target: T1, purified recombinant PKM2 (UniProt P14618 1-531); test: in vitro competitive binding analysis; purified proteins; increasing amounts of DDX39B added to PKM2 (WT or 1-219 aa) and STUB1; western blotting; conditions: both partners purified
T1 construct: pyruvate kinase isoform M2 (PKM2); the methods tell only of GST- and His-fused proteins from E. coli BL21 (DE3); also called PKM2^WT; rPKM2; source: recombinant, purified
T1 sequence (P14618 whole entry, the tested form may be a part, canonical isoform): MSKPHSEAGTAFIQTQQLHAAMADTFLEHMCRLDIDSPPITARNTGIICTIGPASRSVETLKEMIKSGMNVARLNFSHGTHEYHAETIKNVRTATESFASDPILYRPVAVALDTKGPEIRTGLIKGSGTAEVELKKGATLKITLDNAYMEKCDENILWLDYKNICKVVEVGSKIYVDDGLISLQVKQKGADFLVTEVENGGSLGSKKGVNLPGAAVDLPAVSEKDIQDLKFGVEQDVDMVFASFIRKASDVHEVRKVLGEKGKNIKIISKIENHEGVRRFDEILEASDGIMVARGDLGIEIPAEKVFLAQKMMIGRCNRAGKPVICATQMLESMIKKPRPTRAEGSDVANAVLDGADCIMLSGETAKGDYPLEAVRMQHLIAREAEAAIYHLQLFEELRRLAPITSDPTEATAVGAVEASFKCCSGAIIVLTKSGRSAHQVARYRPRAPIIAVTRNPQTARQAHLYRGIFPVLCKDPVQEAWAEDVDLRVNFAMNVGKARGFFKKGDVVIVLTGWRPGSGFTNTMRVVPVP

purified STUB1 = target: B1; test: as above; conditions: both partners purified

binding result [1] | binding result (purified STUB1) | Binder
binds |  | B1
 | binds | B2
